# Data as given in PMC3968025, “Metabolic and Target-Site Mechanisms Combine to Confer Strong DDT Resistance in Anopheles gambiae” (PLoS ONE, 2014).
# Molecular target: the molecule itself
# Assay: crystal structure; ZAN/U:GSH crystals, hanging drops at 22°C, 30% PEG 6000, 0.1 M Bis-Tris pH 6.5, 1 mM β-ME; soaked with DDE (not seen in the maps); 2.3 Å; two biological dimers in the asymmetric unit
protein,measurement,value
"GSTE2 ZAN/U variant (epsilon-class glutathione-S-transferase GSTE2 of Anopheles gambiae, allele ZAN/U 1C) (enzyme, UniProt Q7PVS6 1-221, looked up, Cloned from full-length cDNA; the model runs to Ala221; One of GenBank JX840597-JX840599; Crystallised as the complex with glutathione (GSH, 1:1.2 molar ratio); biological dimer; Natural allelic variant; I114T is written against the Kisumu (ancestral) allele; also called Gste2-114T; ZAN/U:GSH; not shown: His6, N-terminal, cleaved; SUMO, N-terminal, cleaved) MSNLVLYTLHLSPPCRAVELTAKALGLELEQKTINLLTGDHLKPEFVKLNPQHTIPVLDDNGTIITESHAIMIYLVTKYGKDDSLYPKDPVKQARVNSALHFESGVLFARMRFTFERILFFGKSDIPEDRVEYVQKSYELLEDTLVDDFVAGPTMTIADFSCISTISSIMGVVPLEQSKHPRIYAWIDRLKQLPYYEEANGGGGTDLGKFVLAKKEENAKA",stoichiometry N,2
